Measured values as given in publication PMC10543557.

Biological target: FAM-labeled recombinant full-length SARS-CoV-2 Nsp1 (SARS-CoV-2-Nsp1_C-51-V) (SARS-CoV-2) (UniProt P0DTD1)
Test: fluorescence polarisation

“40S ribosomal subunit purified from rabbit reticulocyte lysate (from UniProt G1TNM3 1-243; G1SWM1 1-292) (complex)” was tested, and the Kd was 30 nM.
